In patent US20170362286A1:
No end group written: not given here.

Target: mKv1.3 (murine voltage-gated potassium channel Kv1.3) (mouse) (UniProt P16390)
Assay: cell-based or functional assay

Sequence of mKv1.3 (murine voltage-gated potassium channel Kv1.3) (mouse) (P16390 whole entry): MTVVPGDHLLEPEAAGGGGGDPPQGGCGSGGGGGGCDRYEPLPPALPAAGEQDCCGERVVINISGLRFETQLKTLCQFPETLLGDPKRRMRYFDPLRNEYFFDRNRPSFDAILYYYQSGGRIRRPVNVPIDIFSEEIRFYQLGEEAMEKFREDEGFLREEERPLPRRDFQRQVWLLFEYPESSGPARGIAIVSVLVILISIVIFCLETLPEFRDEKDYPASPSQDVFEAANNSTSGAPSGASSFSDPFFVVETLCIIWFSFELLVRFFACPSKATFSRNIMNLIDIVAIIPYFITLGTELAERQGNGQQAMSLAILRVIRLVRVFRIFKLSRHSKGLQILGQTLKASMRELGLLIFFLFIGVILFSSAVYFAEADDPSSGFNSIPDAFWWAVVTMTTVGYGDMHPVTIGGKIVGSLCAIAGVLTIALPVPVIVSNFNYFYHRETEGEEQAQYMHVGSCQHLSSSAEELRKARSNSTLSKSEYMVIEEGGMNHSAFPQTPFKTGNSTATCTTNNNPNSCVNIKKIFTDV

Q: Which results are given for EWSSRSCIDTIPKSRCTAFQCKHSMKYRLSFCRKTCGTC (not fully specified; ends and bridges not checked) [[EWSS]ShK]?
A: IC50, potency against Kv1.3 channels (patch clamp): 0.033 nM; Selectivity (for Kv1.3 over Kv1.1, ratio of IC50s): 158 fold
